{
  "source": "paper doi:10.1101/2024.10.28.620641",
  "about": "(bioRxiv, 2024)",
  "proteins": {"B1": {"name": "Caulobacter crescentus Tad pilus ATPase CpaF (enzyme, Caulobacter crescentus NA1000, UniProt Q9L714 1-501, looked up)", "chain": "MFGKRDSSASGDPKAPPPAPAGGATIATRPQRVEPVAAPEPKAPAPKVSGPAPKPTVGLEQLRAAQGQPQTANIVREQSDYYHATKTTIFNALLNTIDLSQLAQLDLKQAGEEIRDIVAELVAIKNVSMSVAEQEHLVQDIINDVLGYGPLEPLLARDDIADIMVNGAHRVFIEVGGKVQLTNVRFRDNLQLMNICQRIVSQVGRRVDESSPICDARLPDGSRVNVIAPPLALDGPTLTIRKFKKDKLTMKNLVEFASISPEGARVLGVIGACRCNLVISGGTGSGKTTLLNTMTAFIDPTERVVTCEDAAELQLQQPHVVRLETRPPNLEGSGAVTMRDLVKNCLRMRPERIIVGEVRGPEAFDLLQAMNTGHDGSMGTLHANSPREAISRIESMITMGGYGLPSKTIKEMIVGSVDVIIQAARLRDGSRRITHITEVVGLEGDVIVTQDLFVYEITGEDEHGKVVGKHRSTGIARPRFWDRARYYGLERELAEALDAAE"}},
  "biological_target": "the molecule itself",
  "assay": "cryo-EM structure",
  "data": [
    {"protein": "B1", "values": [
      {"measurement": "stoichiometry N", "value": 6}
    ]}
  ]
}
